This note sets out measurements from PMC3298750 (Nature immunology, 2011).

Non-standard residues stand in square brackets, D forms with d. No end group written: not given here. pS = N[C@@H](COP(=O)(O)O)C(=O)O

15N-WW domain of Pin1 (tag removed), sequence (Q13526 5-39): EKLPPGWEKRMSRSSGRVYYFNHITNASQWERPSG

This test has as its target 15N-WW domain of Pin1 (tag removed) (UniProt Q13526 5-39, 15N-labelled). The experiment in a line: NMR titration.
ELGLVPSPASLWPPPP[pS]PAPSSTK [IRAK1 phosphopeptide 157-180 (pSer173-P174)]: the Kd was found to be 260 ± 75 µM.
The result for EAEAW[pS]PRKLP [IRAK1 phosphopeptide 126-136 (pSer131-P132)] reads 220 ± 15 µM; that for STFL[pS]PAFPGS [IRAK1 phosphopeptide 140-150 (pSer144-P145)], 120 ± 12 µM.

For orientation: Kd means the constant that tells how readily two partners part at equilibrium.
